Patent US20210145976A1

Biological target: human serum albumin (human) (UniProt P02768)
Experiment: screening ELISA

Sequence of human serum albumin (human) (P02768 25-609 limits assumed): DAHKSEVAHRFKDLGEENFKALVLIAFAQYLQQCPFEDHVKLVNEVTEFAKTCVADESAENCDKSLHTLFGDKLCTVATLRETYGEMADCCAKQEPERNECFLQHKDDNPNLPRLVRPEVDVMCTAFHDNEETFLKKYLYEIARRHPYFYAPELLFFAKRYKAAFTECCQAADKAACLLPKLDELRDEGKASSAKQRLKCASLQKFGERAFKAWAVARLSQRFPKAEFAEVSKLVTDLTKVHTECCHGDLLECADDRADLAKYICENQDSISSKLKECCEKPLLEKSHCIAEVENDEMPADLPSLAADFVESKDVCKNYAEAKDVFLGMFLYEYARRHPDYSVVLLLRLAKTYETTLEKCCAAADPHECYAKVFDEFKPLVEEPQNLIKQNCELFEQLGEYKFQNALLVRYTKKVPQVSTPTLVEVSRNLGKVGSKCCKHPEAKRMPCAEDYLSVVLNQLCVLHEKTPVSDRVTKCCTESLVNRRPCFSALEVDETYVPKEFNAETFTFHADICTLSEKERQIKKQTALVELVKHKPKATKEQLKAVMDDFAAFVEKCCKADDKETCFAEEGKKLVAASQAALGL

HSA	Binder
2200	SEQ ID NO 241 (designed binder) MLPAPKNLVVSRVTEDSARLSWTAPDAAFDSFNIYYYEWFVSGEAIVLTVPGSERSYDLTGLKPGTEYFVDIDGVKGGYRSRPLSAIFTT
3950	SEQ ID NO 265 (designed binder) MLPAPKNLVVSRVTEDSARLSWTAPDAAFDSFWIYYIETSHQGEAIVLTVPGSERSYDLTGLKPGTEYFVLIKGVKGGYDSVPLSAIFTT
18800	SEQ ID NO 250 (designed binder) MLPAPKNLVVSRVTEDSARLSWTAPDAAFDSFFIGYLEPYPPGEAIVLTVPGSERSYDLTGLKPGTEYAVEIAGVKGGLLSSPLSAISTT
9650	SEQ ID NO 251 (designed binder) MLPAPKNLVVSRVTEDSARLSWTAPDAAFDSFFIGYLEPQPPGEAIVLTVPGSERSYDLTGLKPGTEYNVTIQGVKGGFPSMPLSAIVTT
20400	SEQ ID NO 263 (designed binder) MLPAPKNLVVSRVTEDSARLSWTAPDAAFDSFFIGYLEPQPPGEAIVLTVPGSERSYDLTGLKPGTEYNVTIQGVKGGFPSMPLSAISTT
2500	SEQ ID NO 252 (designed binder) MLPAPKNLVVSRVTEDSARLSWTAPDAAFDSFDIGYTEYGGYGEAIVLTVPGSERSYDLTGLKPGTEYWVLIQGVKGGGSSVPLSAIFTT
4550	SEQ ID NO 255 (designed binder) MLPAPKNLVVSRVTEDSARLSWTAPDAAFDSFDIEYYELIGRGEAIVLTVPGSERSYDLTGLKPGTEYWVGIYGVKGGWLSRPLSAIFTT
2900	SEQ ID NO 245 (designed binder) MLPAPKNLVVSRITEDSARLSWTAPDAAFDSFGIAYNEGDHYGEAIVLTVPGSERSYDLTGLKPGTEYSVWIEGVKGGNLSYPLSAIFTT
4150	SEQ ID NO 269 (designed binder) MLPAPKNLVVSRVTEDSARLSWTAPDAAFDSFHINYAEVYTKGEAILLTVPGSERSYDLTGLKPGTEYEVYIPGVKGGPFSRPLNAQFTT
53000	SEQ ID NO 247 (designed binder) MLPAPKNLVVSRVTEDSARLSWTAPDAAFDSFYIEWTYKGEAIVLTVPGSERSYDLTGLKPGTEYFVGIPGVKGGKSSYPLSAIFTT
1350	SEQ ID NO 235 (designed binder) MLPAPKNLVVSRVTEDSARLSWTAPDAAFDSFSINYREWWSDGEAIYLPVPGSERSYDLTGLKPGTEYAVYIQGVKGGSRSFPLHAWFTT
26500	SEQ ID NO 231 (designed binder) MLPAPKNLVVSRVTEDSARLSWTAPDAAFDSFEIPYIETVALGEAIVLTVPGSERSYDLTGLKPGTEYYVEIYGVKGGSYSYPLSAISTT
14400	SEQ ID NO 260 (designed binder) MLPAPKNLVVSRVTEDSARLSWTAPDAAFDSFNISYYEYFVHGEAIVLTVPGSERSYDLTGLKPGTEYYVIDGVKGGDPSEPLSAIFTT
2650	SEQ ID NO 266 (designed binder) MLPAPKNLVVSRVTEDSARLSWTAPDAAFDSFMIRYQEGTRWGEAIVLTVPGSERSYDLTGLKPGTEYIVMIAGVKGGQISLPLSAIFTT
15100	SEQ ID NO 248 (designed binder) MGSLPAPKNLVVSRVTEDSARLSWTAPDAAFDSFAIPYAEPSPTGEAIVLTVPGSERSYDLTGLKPGTEYPVWIQGVKGGSPSAPLSAEFTT
1850	SEQ ID NO 237 (designed binder) MLPAPKNLVVSRVTEDSARLSWTAPDAAFDSFTILYGEMGTTGEAIVLTVPGSERSYDLTGLKPGTEYDVFIEGVKGGELSWPLSAIFTT
11900	SEQ ID NO 267 (designed binder) MLPAPKNLVVSRVTEDSARLSWTAPDAAFDSFPIVYSEIHVIGEAIVLTVPGSERSYDLTGLKPGTEYDVWIEGVKGGHLSEPLSAIFTT
2550	SEQ ID NO 268 (designed binder) MLPAPKNLVVSRVTEDSARLSWTAPDAAFDSFTIVYGEAGAFGEAIVLTVPGSERSYDLTGLKPGTEYDVLIEGVKGGNLSWPLSAIFTT
5550	SEQ ID NO 261 (designed binder) MLPAPKNLVVSRVTEDSARLSWTAPDAAFDSFTIVYGEWGVPGEAIVLTVPGSERSYDLTGLKPGTEYDVWIEGVKGGDLSWPLSAIVTT
1400	SEQ ID NO 246 (designed binder) MLPAPKNLVVSRVTEDSARLSWTAPDAAFDSFTIAYNEQNHYGEAIVLTVPGSERSYDLTGLKPGTEYGVWIEGVKGGTLSWPLSAIFTT
3950	SEQ ID NO 257 (designed binder) MLPAPKNLVVSRVTEDSARLSWTAPDAAFDSFHIVYHEPRPSGEAIVLTVPGSERSYDLTGLKPGTEYEVGIVSVKGGDLSVPLSAIFTT

HSA	Binder
2600	SEQ ID NO 233 (designed binder) MLPAPKNLVVSRVTEDSARLSWTAPDAAFDSFYIVYAEPIPNGEAIVLTVPGSERSYDLTGLKPGTEYSVLIHGVKGGRNSDPLSAIFTT
90000	SEQ ID NO 254 (designed binder) MLPAPKNLVVSRVTEDSARLSWTAPDAAFDSFFIPYAEPSPTGEAIVLTVPGSERSYDLTGLKPGTEYSVLIHGVKGGHLSDPLSAISTT
10600	SEQ ID NO 258 (designed binder) MLPAPKNLVVSRVTEDSARLSWTAPDAAFDSFFIPYAEPSPTGEAIVLTVPGSERSYDLTGLKPGTEYDVWIEGVKGGVLSWPLSAIFTT
2200	SEQ ID NO 256 (designed binder) MLPAPKNLVVSRVTEDSARLSWTAPDAAFDSFHIVYHEPRPSGEAIVLTVPGSERSYDLTGLKPGTEYEVGIVGVKGGDLSVPLSAIFTT
5050	SEQ ID NO 239 (designed binder) MLPAPKNLVVSRVTEDSARLSWTAPDAAFDSFAITYYEGRWRGEAIVLTVPGSERSYDLTGLKPGTEYGVPIRGVKGGTGSLPLSAIFTT
1650	SEQ ID NO 244 (designed binder) MLPAPKNLVVSRVTEDSARLSWTAPDAAFDSFHIDYSEFHLRGEAIVLTVPGSERSYDLTGLKPGTEYLGIFGVKGGEQSGPLSAIFTT
11500	SEQ ID NO 49 (designed binder) MLPAPKNLVVSRVTEDSARLSWTAPDAAFDSFGISYLEWWEDGEAIVLTVPGSERSYDLTGLKPGTEYWVSIAGVKGGKRSYPLSAIFTT
2050	SEQ ID NO 240 (designed binder) MLPAPKNLVVSRVTEDSARLSWTAPDAAFDSFRIKYLEWWLGGEAIVLTVPGSERSYDLTGLKPGTEYWVDIQGVKGGVLSWPLSAIFTT
1760	SEQ ID NO 52 (designed binder) MLPAPKNLVVSRVTEDSARLSWTAPDAAFDSFKISYQEWWEDGEAIVLTVPGSERSYDLTGLKPGTEYWVNISGVKGGVQSYPLSAIFTT
4900	SEQ ID NO 242 (designed binder) MLPAPKNLVVSRVTEDSARLSWTAPDAAFDSFPIKYLEWWSWGEAIVLTVPGSERSYDLTGLKPGTEYRVPISGVKGGGMSGPLSAIFTT
3700	SEQ ID NO 229 (designed binder) MLPAPKNLVVSRVTEDSARLSWTAPDAAFDSFSIHYDEDWRRGEAIVLTVPGSERSYDLTGLKPGTEYLVEIPGVKGGKASYPLSAIFTT
4240	SEQ ID NO 51 (designed binder) MLPAPKNLVVSRVTEDSARLSWTAPDAAFDSFFIKYIEWWADGEAIVLTVPGSERSYDLTGLKPGTEYLVEIYGVKGGKWSWPLSAIFTT
2300	SEQ ID NO 227 (designed binder) MLPAPKNLVVSRVTEDSARLSWTAPDAAFDSFRIRYLEWWNIGEAIVLTVPGSERSYDLTGLKPGTEYHVDIWGVKGGYSSYPLSAIFTT
2550	SEQ ID NO 264 (designed binder) MLPAPKNLVVSRVTEDSARLSWTAPDAAFDSFRIKYQEWWVEGEAIVLTVPGSERSYDLTGLKPGTEYVVQIAGVKGGLSSYPLSAIFTT
9120	SEQ ID NO 53 (designed binder) MLPAPKNLVVSRVTEDSARLSWTAPDAAFDSFFISYIEWWDLGEAIVLTVPGSERSYDLTGLKPGTEYHVEIFGVKGGTQSYPLSAIFTT
1900	SEQ ID NO 230 (designed binder) MLPAPKNLVVSRVTEDSARLSWTAPDAAFDSFQIRYPKRWISGEAIVLTVPGSERSYDLTGLKPGTEYEVVIRGVKGGEYSWPLSAIFTT
4250	SEQ ID NO 238 (designed binder) MLPAPKNLVVSRVTEDSARLSWTAPDAAFDSFKIFYQEFGGEAIVLTVPGSERSYDLTGLKPGTEYWVDIYGVKGGYTSSPLSAIFTT
2450	SEQ ID NO 253 (designed binder) MLPAPKNLVVSRVTEDSARLSWTAPDAAFDSFTIEYWETIGGGEAIVLTVPGSERSYDLTGLKPGTEYYVGIYGVKGGWWSRPLSAIFTT
2350	SEQ ID NO 262 (designed binder) MLPAPKNLVVSRVTEDSARLSWTAPDAAFDSFAIEYFEYTGEGEAIVLTVPGSERSYDLTGLKPGTEYYVGIYGVKGGYLSRPLSAIFTT
2100	SEQ ID NO 259 (designed binder) MLPAPKNLVVSRVTEDSARLSWTAPDAAFDSFTIEYFEFVDAGEAIVLTVPGSERSYDLTGLKPGTEYWVEIWGVKGGSWSKPLSAIFTT
